Data set [1] deals with T1, BiP NBD (28–413) (Chinese hamster, UniProt G3I8R9 28-413).
T1 construct: UK2039 is named for the crystals and the MABA-ADP assay; also called UK2039; source: E. coli M15, purified (nickel chelating, tag cleavage, anion exchange, SEC); not shown: His6-Smt3, N-terminal, cleaved
The data set is described as follows: BLI; sequential dipping: streptavidin biosensors loaded with biotinylated MANF, SAP or SAPLIP, dipped in BiP SBD, buffer, BiP NBD with 2 mM ATP, 2 mM ATP, BiP NBD with 2 mM ADP, 2 mM ADP; HKMT buffer. Conditions: both partners purified.

Data set [2] concerns the molecule itself. The data set is described as follows: crystal structure; lidless BiP^V461F (apo) crystals from a co-crystallisation mix with MANF or SAP; only BiP^V461F present in the crystal; contacts between protomers of the lattice.

The values that follow come from article PMC6358605, “MANF antagonizes nucleotide exchange by the endoplasmic reticulum chaperone BiP” (Nature Communications, 2019).

T1 sequence (G3I8R9 28-413): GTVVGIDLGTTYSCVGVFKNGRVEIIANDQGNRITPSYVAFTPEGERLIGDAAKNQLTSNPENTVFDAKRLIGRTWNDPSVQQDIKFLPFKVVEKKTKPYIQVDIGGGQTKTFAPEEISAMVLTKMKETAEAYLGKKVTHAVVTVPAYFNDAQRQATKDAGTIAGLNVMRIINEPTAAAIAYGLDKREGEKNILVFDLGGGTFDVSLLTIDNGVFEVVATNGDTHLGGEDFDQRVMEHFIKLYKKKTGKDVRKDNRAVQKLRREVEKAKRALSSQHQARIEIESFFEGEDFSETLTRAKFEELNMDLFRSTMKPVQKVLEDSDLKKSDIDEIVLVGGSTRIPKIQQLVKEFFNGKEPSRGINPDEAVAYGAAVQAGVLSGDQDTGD

B1: biotinylated AviTag-SAP^119–179 (domain or fragment, mouse, UniProt Q9CXI5 119-179, looked up)
chain: DKQIDLSTVDLKKLRVKELKKILDDWGEMCKGCAEKSDYIRKINELMPKYAPKAASARTDL
modifications: also: biotin on AviTag lysine (tag not in chain)
notes: C-terminal SAP (SAF-A/B, Acinus, and PIAS) domain of MANF, mouse, residues 119-179; also called SAP domain of MANF; UK2005; source: E. coli Origami B (DE3), purified (GSTrap, TEV cleavage), biotinylated in vitro with BirA; not shown: GST, N-terminal, cleaved; AviTag, N-terminal, kept
As to B1, the binding result in data set [1] is on record as “binds”.

B2: biotinylated AviTag-MANF^22–179 (natural protein, mouse, UniProt Q9CXI5 22-179, looked up)
chain: LRPGDCEVCISYLGRFYQDLKDRDVTFSPATIEEELIKFCREARGKENRLCYYIGATDDAATKIINEVSKPLAHHIPVEKICEKLKKKDSQICELKYDKQIDLSTVDLKKLRVKELKKILDDWGEMCKGCAEKSDYIRKINELMPKYAPKAASARTDL
modifications: biotin (on the AviTag, by E. coli BirA)
notes: mesencephalic astrocyte-derived neurotrophic factor (MANF), mouse, residues 22-179; Ligand on streptavidin BLI sensors; also called mMANF; UK1987; source: E. coli Origami B (DE3), purified (GSTrap, TEV cleavage), biotinylated in vitro with BirA; not shown: GST, N-terminal, cleaved; AviTag, N-terminal, kept
Regarding B2, the binding result in data set [1] is listed as “binds”.

B3: lidless Chinese hamster BiP^V461F (28–549) (domain or fragment)
chain: not shown
notes: BiP, Chinese hamster, residues 28-549 (C-terminal alpha-helical lid truncated), V461F; also called BiP^V461F (apo); UK2121; source: E. coli M15, purified (nickel chelating, anion exchange, SEC)
B3: in data set [2], the binding result is “binds”.
